Laboratory results taken from paper PMC9695642, “Conservation of Importin α Function in Apicomplexans: Ivermectin and GW5074 Target Plasmodium falciparum Importin α and Inhibit Parasite Growth in Culture” (International Journal of Molecular Sciences, 2022).

Experiments:
[1] = target: His-tagged TGS1-NLS-GFP (NLS of P. falciparum trimethylguanosine synthase fused to GFP) (Plasmodium falciparum); experiment: AlphaScreen or HTRF; biotinylated IMPαs titrated against His-tagged NLS-GFPs (30 nM); apparent dissociation constant
[2] = target: His-tagged GCN5-NLS-GFP (NLS of T. gondii histone acetyltransferase GCN5 fused to GFP) (Toxoplasma gondii); experiment: as above
[3] = target: His-tagged Toxoplasma gondii importin α (Toxoplasma gondii); experiment: AlphaScreen or HTRF; His-tagged IMPαs (30 nM) titrated with increasing concentrations of biotinylated GST-MmIMPβ1 (legend: 5 nM)
[4] = target: His-tagged Mus musculus importin α (Mus musculus) (UniProt P52293); experiment: as above

| Kd [4] [nM] | Substance | Kd [1] [nM] | Kd [2] [nM] | Kd [3] [nM] |
| --- | --- | --- | --- | --- |
| – | Toxoplasma gondii importin α, biotinylated GST fusion protein (natural protein) | 1.9 | 5 | – |
| – | biotinylated GST-MmIMPβ1 (Mus musculus importin β1) (from UniProt P70168 1-876) | – | – | 1.2 |
| 2.5 | biotinylated GST-MmIMPβ1 (Mus musculus importin β1) (from UniProt P70168 1-876) (natural protein) | – | – | – |
| – | mammalian IMPα/β1 heterodimer from M. musculus (from UniProt P52293 1-529; P70168 1-876) (complex) | 2.5 | 3.2 | – |
